Data as given in patent US20220041746A1 (Sanofi, published 2022).

Target: human CD38 (Cambridge Biologics LLC Cat #03-01-0369) (human, UniProt P28907 43-300)
Experiment: ELISA on coated hCD38-His
Method: The binding properties of the purified antibodies were analyzed either using ELISA or SPR methods. For ELISA, corresponding antigens for each binding site in the trispecific binding protein were used to coat a 96-well Immuno Plate (Nunc 439454, Thermo Fisher Scientific) overnight at 4° C. using 2 μg/ml each antigen m PBS(pH7.4). The coated plate was blocked using 5% skim milk 12% BSA in PBS for one hour at RT, followed by washing with PBS+[…] three times (Aqua Max 400, Molecular Devices). Serial dilution of antibodies (trispecific and control Abs) were prepared and added onto the ELISA plates (100 μl/well in duplicate), incubated at RT for one hour, followed by washing 5 times with PBS+0.25% Tween 20.
The reaction was terminated by adding 50 μl 1M H₂SO₄, and OD₄₅₀ was measured using SpectraMax M5 (Molecular Devices) and analyzed using SoltMax Pro6.3 software (Molecular Devices). The final data was transferred to GraphPad Prism software (GraphPad Software, CA. USA), and plotted as shown. EC50 was calculated using the same software.

B1: mAb2xCD28supxCD3mid IgG4 FALA (other)
heavy 1: QVQLVQSGAEVVKPGASVKVSCKASGYTFTSYYIHWVRQAPGQGLEWIGSIYPGNVNTNYAQKFQGRATLTVDTSISTAYMELSRLRSDDTAVYYCTRSHYGLDWNFDVWGKGTTVTVSSSQVQLVESGGGVVQPGRSLRLSCAASGFTFTKAWMHWVRQAPGKQLEWVAQIKDKSNSYATYYADSVKGRFTISRDDSKNTLYLQMNSLRAEDTAVYYCRGVYYALSPFDYWGQGTLVTVSSRTASTKGPSVFPLAPCSRSTSESTAALGCLVKDYFPEPVTVSWNSGALTSGVHTFPAVLQSSGLYSLSSVVTVPSSSLGTKTYTCNVDHKPSNTKVDKRVESKYGPPCPPCPAPEAAGGPSVFLFPPKPKDTLMISRTPEVTCVVVDVSQEDPEVQFNWYVDGVEVHNAKTKPREEQFNSTYRVVSVLTVLHQDWLNGKEYKCKVSNKGLPSSIEKTISKAKGQPREPQVCTLPPSQEEMTKNQVSLSCAVKGFYPSDIAVEWESNGQPENNYKTTPPVLDSDGSFFLVSKLTVDKSRWQEGNVFSCSVMHEALHNHYTQKSLSLSLG
light 1: DIVMTQTPLSLSVTPGQPASISCKSSQSLVHNNANTYLSWYLQKPGQSPQSLIYKVSNRFSGVPDRFSGSGSGTDFTLKISRVEAEDVGVYYCGQGTQYPFTFGSGTKVEIKGQPKAAPDIQMTQSPSSLSASVGDRVTITCQASQNIYVWLNWYQQKPGKAPKLLIYKASNLHTGVPSRFSGSGSGTDFTLTISSLQPEDIATYYCQQGQTYPYTFGQGTKLEIKTKGPSRTVAAPSVFIFPPSDEQLKSGTASVVCLLNNFYPREAKVQWKVDNALQSGNSQESVTEQDSKDSTYSLSSTLTLSKADYEKHKVYACEVTHQGLSSPVTKSFNRGEC
heavy 2: QVQLVQSGAEVVKPGASVKVSCKASGYTFTSYAMHWVKEAPGQRLEWIGYIYPGQGGTNYNQKFQGRATLTADTSASTAYMELSSLRSEDTAVYFCARTGGLRRAYFTYWGQGTLVTVSSASTKGPSVFPLAPCSRSTSESTAALGCLVKDYFPEPVTVSWNSGALTSGVHTFPAVLQSSGLYSLSSVVTVPSSSLGTKTYTCNVDHKPSNTKVDKRVESKYGPPCPPCPAPEAAGGPSVFLFPPKPKDTLMISRTPEVTCVVVDVSQEDPEVQFNWYVDGVEVHNAKTKPREEQFNSTYRVVSVLTVLHQDWLNGKEYKCKVSNKGLPSSIEKTISKAKGQPREPQVYTLPPCQEEMTKNQVSLWCLVKGFYPSDIAVEWESNGQPENNYKTTPPVLDSDGSFFLYSKLTVDKSRWQEGNVFSCSVMHEALHNHYTQKSLSLSLG
light 2: DIVLTQSPATLSLSPGERATISCRASQSVSSYGQGFMHWYQQKPGQPPRLLIYGASSRATGIPARFSGSGSGTDFTLTISPLEPEDFAVYYCQQNKEDPWTFGGGTKLEIKRTVAAPSVFIFPPSDEQLKSGTASVVCLLNNFYPREAKVQWKVDNALQSGNSQESVTEQDSKDSTYSLSSTLTLSKADYEKHKVYACEVTHQGLSSPVTKSFNRGEC
notes: also called CD38VH1×CD28sup×CD3mid IgG4 FALA
  binding result: binds
